The values that follow come from US20250042956A1 (University of California, published 2025).

In assay [1] the target is T1, AT5G67580.1 TRB2 (Arabidopsis thaliana, UniProt Q9FJW5 1-299).
T1 construct: Endogenous protein found by mass spectrometry
T1 sequence: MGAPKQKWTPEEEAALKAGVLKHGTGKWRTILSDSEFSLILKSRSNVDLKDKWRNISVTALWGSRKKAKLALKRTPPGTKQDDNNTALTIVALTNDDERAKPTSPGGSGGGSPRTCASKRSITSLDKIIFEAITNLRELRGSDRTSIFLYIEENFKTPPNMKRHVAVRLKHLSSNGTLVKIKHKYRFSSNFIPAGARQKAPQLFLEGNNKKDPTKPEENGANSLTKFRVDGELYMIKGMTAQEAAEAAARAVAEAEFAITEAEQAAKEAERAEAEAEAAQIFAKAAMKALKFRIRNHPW
The assay is described as follows: IP-MS rep 2. The procedure, abridged:
(§1)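 Peptide counts for co-purified proteins come from mass spectrometry of proteins pulled down from Arabidopsis floral buds with anti-FLAG magnetic beads. Ten grams of unopened buds from wild-type and FLAG-tagged transgenic lines were ground in liquid nitrogen and homogenised in 25 mL IP buffer. Lysates were held with 250 μL anti-FLAG M2 magnetic beads at 4° C for 2 hours, and bound proteins were eluted in TBS with 250 μg/mL 3×FLAG peptides.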

Assay [2] deals with T2, AT3G49850.1 TRB3 (Arabidopsis thaliana, UniProt Q9M2X3 1-295).
T2 construct: Endogenous protein found by mass spectrometry
T2 sequence: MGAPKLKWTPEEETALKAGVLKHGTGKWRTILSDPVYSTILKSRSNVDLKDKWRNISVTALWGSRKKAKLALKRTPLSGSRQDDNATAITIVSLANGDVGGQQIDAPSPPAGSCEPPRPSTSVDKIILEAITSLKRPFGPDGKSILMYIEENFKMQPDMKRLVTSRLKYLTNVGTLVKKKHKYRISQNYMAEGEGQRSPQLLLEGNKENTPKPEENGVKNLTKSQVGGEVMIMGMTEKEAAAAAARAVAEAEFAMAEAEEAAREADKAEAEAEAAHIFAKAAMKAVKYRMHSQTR
The assay is described as follows: IP-MS rep 2. An outline of the steps: as §1

Assay [3] concerns the target T3, AT3G20740.1 FIE (Arabidopsis thaliana, UniProt Q9LT47 1-369).
T3 construct: Endogenous protein found by mass spectrometry; also called FERTILIZATION INDEPENDENT ENDOSPERM
T3 sequence (looked up): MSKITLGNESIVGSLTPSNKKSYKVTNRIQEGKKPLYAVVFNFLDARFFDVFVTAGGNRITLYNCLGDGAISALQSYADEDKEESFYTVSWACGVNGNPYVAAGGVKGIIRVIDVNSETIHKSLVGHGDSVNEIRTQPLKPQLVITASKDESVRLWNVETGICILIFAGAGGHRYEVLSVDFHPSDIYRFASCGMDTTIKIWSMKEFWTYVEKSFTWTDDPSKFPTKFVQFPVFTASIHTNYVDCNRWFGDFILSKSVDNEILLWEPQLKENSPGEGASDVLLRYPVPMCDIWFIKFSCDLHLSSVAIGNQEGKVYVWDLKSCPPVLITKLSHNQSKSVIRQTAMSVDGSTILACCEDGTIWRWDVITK
The assay is described as follows: IP-MS rep 2. An outline of the steps:
as §1

Assay [4] deals with T4, AT5G51230.1 EMF2 (Arabidopsis thaliana, UniProt Q8L6Y4 1-631).
T4 construct: Endogenous protein found by mass spectrometry; also called EMBRYONIC FLOWER 2
T4 sequence (looked up): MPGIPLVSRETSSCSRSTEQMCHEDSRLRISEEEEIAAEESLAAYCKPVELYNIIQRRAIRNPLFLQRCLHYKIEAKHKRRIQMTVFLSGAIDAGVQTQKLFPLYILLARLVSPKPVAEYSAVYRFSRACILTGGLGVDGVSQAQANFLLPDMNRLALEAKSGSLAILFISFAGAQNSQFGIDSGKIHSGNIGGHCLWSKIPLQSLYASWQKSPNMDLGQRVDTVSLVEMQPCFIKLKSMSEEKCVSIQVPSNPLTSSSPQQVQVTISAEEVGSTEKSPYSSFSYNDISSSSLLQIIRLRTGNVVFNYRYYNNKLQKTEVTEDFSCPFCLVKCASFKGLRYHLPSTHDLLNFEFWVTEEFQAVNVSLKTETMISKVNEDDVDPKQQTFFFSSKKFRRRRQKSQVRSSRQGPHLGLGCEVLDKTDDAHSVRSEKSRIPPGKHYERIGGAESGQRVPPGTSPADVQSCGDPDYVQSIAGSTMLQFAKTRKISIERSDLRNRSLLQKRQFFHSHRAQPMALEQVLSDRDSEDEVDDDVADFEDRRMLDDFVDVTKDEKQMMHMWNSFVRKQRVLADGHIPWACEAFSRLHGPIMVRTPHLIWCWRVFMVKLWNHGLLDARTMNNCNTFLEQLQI
The assay is described as follows: IP-MS rep 1. The procedure, abridged:
as §1

Assay [5] has as its target T1, AT5G67580.1 TRB2. The experiment in a line: IP-MS rep 1. The procedure, abridged:
as §1

For assay [6], the target named is T5, AT4G35510.1 TRBIP1 (Arabidopsis thaliana).
T5 construct: Endogenous protein found by mass spectrometry
T5 chain: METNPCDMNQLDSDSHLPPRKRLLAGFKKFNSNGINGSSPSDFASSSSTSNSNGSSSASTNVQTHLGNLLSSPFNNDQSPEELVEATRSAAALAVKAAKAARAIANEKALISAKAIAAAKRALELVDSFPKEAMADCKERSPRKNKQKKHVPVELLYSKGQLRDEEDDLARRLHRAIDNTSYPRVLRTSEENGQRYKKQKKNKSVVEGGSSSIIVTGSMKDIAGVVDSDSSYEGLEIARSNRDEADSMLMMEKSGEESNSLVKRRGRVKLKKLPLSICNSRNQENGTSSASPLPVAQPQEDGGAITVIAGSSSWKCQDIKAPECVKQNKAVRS
The assay is described as follows: IP-MS rep 1. The procedure, abridged: as §1

The target in assay [7] is T2, AT3G49850.1 TRB3. The assay is described as follows: IP-MS rep 1. The procedure, abridged: as §1
For assay [8], the target named is T3, AT3G20740.1 FIE. The assay is described as follows: IP-MS rep 1. The procedure, abridged: as §1

B1: TRBIP2 (bait of the TRBIP2 IP-MS) (other, not shown: small tags and cut ends)
chain: MATNACLESDSLLPPRKRLLAGFKNQNSRISNESPSPPFASSSSSTTTSNGSSASAVVHTHHLDHLLNDQTRSPEELAQASKATAALAVKVAKAARATANEKAIIASKAVAAAKNALELFASFPAAETVSCKEPRLIRAINNSPRVLTDCSGHRNKKQKTLTSTMNDGNDVAGVVDSDDGTRVNGKLLLCDNTLKEKTEEESSSLGKRRGRVKLPLSMCAYKDQENGITLEENNLSVSKSEGYNGGVAQVIERPSWKCQDLKSPECVKQNKVVRS
notes: tag and its position not described; also called TRBIP2-1; TRBIP2-2
Consider B1, for which the IP-MS count in assay [1] turned out to be 3; in assay [2], 6; in assay [3], 0; in assay [4], 0; in assay [5], 43; in assay [6], 1. Moreover, the IP-MS count turned out to be 8 in assay [7] and 1 in assay [8].
